System: peptide library, one residue held at a place counted from the Y acceptor
Test: relative phosphorylation of the sub-library (ratio to the mean residue at this position); higher = residue favoured
In short: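 Each value expresses phosphorylation relative to the mean randomized residue. Purified recombinant kinases acted for 90 min in 384-well plates on biotinylated Tyr-centred peptide library mixtures, with one residue fixed at one position from −5 to +5, in the presence of 50 μM ATP with γ-32P-ATP. Signals were read by phosphorimaging after capture on streptavidin membranes, then normalized per position to the sum of the 18 randomized residues (16 in the Ser/Thr-free library) and multiplied by that number.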

Chain of MET, construct: aa956-end, human (P08581 956-1390, looked up): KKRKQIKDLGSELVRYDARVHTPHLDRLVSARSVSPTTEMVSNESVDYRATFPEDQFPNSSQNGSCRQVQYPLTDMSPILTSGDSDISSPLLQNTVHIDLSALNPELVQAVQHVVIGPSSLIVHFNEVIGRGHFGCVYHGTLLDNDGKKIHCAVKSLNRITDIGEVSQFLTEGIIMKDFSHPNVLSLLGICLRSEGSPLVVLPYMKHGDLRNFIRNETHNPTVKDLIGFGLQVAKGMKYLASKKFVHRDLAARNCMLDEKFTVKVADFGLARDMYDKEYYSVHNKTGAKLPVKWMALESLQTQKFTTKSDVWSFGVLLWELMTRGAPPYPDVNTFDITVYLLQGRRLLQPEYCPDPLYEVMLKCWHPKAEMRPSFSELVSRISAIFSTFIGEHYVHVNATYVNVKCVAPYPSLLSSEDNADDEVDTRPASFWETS
Chain of PDGFRA, construct: aa550-end, human (P16234 550-1089, looked up): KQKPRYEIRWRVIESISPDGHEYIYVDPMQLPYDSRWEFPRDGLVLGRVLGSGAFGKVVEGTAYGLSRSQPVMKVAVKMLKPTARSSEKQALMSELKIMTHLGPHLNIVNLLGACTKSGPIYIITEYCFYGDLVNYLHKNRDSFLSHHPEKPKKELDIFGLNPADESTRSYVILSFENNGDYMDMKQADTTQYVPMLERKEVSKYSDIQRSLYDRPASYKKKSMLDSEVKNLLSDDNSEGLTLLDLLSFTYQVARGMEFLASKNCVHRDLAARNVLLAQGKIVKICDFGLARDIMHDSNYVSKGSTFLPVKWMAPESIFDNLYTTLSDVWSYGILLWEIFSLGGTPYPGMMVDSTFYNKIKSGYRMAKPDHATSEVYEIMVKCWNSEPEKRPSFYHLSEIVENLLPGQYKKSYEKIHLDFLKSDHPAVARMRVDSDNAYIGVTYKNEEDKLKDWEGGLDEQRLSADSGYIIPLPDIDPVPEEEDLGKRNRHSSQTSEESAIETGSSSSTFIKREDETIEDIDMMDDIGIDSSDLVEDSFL
Chain of MKK7, construct: Full length, human (O14733 whole entry, looked up): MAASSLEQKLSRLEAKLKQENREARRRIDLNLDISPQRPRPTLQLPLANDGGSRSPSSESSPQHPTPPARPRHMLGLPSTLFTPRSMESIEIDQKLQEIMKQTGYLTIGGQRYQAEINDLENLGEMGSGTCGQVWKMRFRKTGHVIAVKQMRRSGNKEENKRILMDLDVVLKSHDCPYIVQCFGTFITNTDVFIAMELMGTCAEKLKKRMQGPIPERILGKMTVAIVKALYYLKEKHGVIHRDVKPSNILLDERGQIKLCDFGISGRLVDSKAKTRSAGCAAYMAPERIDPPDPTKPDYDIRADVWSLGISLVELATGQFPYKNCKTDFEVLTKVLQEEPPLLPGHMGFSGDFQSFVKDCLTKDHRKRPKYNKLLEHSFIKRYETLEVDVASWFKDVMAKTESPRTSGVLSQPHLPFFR

LIMK2, construct: Full length, human (from UniProt P53671)
relative phosphorylation
Conditions	at +1	at +2	at +3	at +4	at +5	at -1	at -2	at -3	at -4	at -5
A fixed	0.976	0.966	1.08	1.3	0.842	1.01	0.854	1.04	1.16	1.03
D fixed	0.585	0.603	0.651	0.577	0.528	0.594	0.554	0.548	0.717	0.683
E fixed	0.556	0.664	0.635	0.693	0.554	0.615	0.56	0.529	0.643	0.723
F fixed	0.891	1.1	0.986	0.945	0.84	0.819	0.936	0.877	0.858	0.92
G fixed	0.979	1.06	1.1	1.48	1.07	1.08	1.08	1.24	1.27	1.05
H fixed	1.33	1.11	1.25	1.39	1.13	1.05	1.18	1.14	0.993	1.13
I fixed	0.695	0.788	0.744	0.691	0.53	0.782	0.82	0.632	0.691	0.818
K fixed	1.65	1.47	1.31	1.43	1.73	1.54	1.51	1.6	1.46	1.46
L fixed	0.739	0.931	0.795	0.891	0.749	0.896	0.86	0.865	0.815	0.849
M fixed	0.822	1.01	1.1	0.899	0.75	0.922	0.857	0.669	0.79	0.744
N fixed	0.958	0.851	0.879	0.724	1.07	1.1	1.07	1.09	0.928	0.852
P fixed	1.23	1.31	1.33	1.4	1.13	1.28	1.26	1.33	1.19	1.15
Q fixed	1.05	0.775	0.831	0.66	1.12	0.944	0.911	1.13	0.988	0.893
R fixed	1.79	1.28	1.3	1.19	2	1.65	1.6	1.59	1.55	1.52
V fixed	0.647	0.84	0.78	0.713	0.689	0.715	0.887	0.765	0.783	0.774
W fixed	1.1	1.23	1.22	1.02	1.28	0.986	1.05	0.96	1.16	1.4
pThr fixed	0.62	0.618	0.541	0.618	0.406	0.623	0.566	0.539	0.717	0.671
pTyr fixed	0.617	0.693	0.604	0.497	0.519	0.868	0.658	0.599	0.627	0.759

MET, construct: aa956-end, human (from UniProt P08581)
relative phosphorylation
Conditions	at +1	at +2	at +3	at +4	at +5	at -1	at -2	at -3	at -4	at -5
A fixed	1.33	1.03	0.632	0.901	1.11	0.739	1.1	0.977	1.04	1.05
D fixed	0.433	0.808	0.32	0.658	0.938	1.86	1.52	1.64	1.4	1.27
E fixed	0.821	0.83	0.252	0.581	0.861	1.37	1.45	1.79	1.61	1.09
F fixed	1.25	1.07	1.28	1.3	1.05	0.688	0.534	0.663	0.914	0.869
G fixed	0.609	0.616	0.564	1.02	0.906	0.478	1.21	1.22	1.21	1.11
H fixed	1.34	0.874	0.869	0.998	0.879	1.24	0.819	0.911	0.916	1
I fixed	1.4	0.913	2.4	0.797	0.796	1.7	0.711	0.529	0.737	0.721
K fixed	0.531	0.705	0.431	0.87	0.978	0.496	0.738	0.866	0.86	1.19
L fixed	0.758	0.935	1.9	0.771	1.02	1.06	0.704	0.558	0.728	0.724
M fixed	0.84	0.833	1.43	0.883	0.965	0.774	0.583	0.596	0.746	0.733
N fixed	0.574	1.29	0.537	0.875	1.02	1.26	1.16	1.37	0.984	0.995
P fixed	0.442	0.961	1.36	1.09	1.21	0.659	1.59	1.22	1.18	1.16
Q fixed	1.21	1.03	0.578	0.994	0.932	1.12	1.17	1.1	1.07	0.976
R fixed	0.887	1.07	0.554	1.06	1.05	0.597	0.88	0.918	0.995	1.18
S fixed	1.11	1.25	0.616	0.957	1.2	0.704	1.34	1.27	0.948	1
T fixed	1.26	1.18	0.723	0.899	1.02	1.11	0.99	0.977	0.767	0.893
V fixed	1.99	1.07	1.72	0.851	0.867	1.21	0.868	0.605	0.711	0.735
W fixed	1.22	1.54	1.84	2.49	1.2	0.931	0.629	0.784	1.19	1.31
pThr fixed	1.16	1.4	0.271	0.399	0.597	2.21	1.93	1.77	1.38	1.32
pTyr fixed	3.19	2.63	0.524	0.871	0.771	4.16	1.47	1.82	2.14	1.64

MKK7, construct: Full length, human (from UniProt O14733)
relative phosphorylation
Conditions	at +1	at +2	at +3	at +4	at +5	at -1	at -2	at -3	at -4	at -5
A fixed	0.866	0.844	0.903	0.959	0.929	1.02	0.884	0.883	1.05	0.989
D fixed	0.796	1.11	1.02	1.07	0.952	0.915	0.883	0.947	0.993	1.02
E fixed	0.856	0.895	1.27	0.992	1.05	0.914	0.91	0.926	0.996	0.917
F fixed	1.11	1.39	1.21	1.13	1.14	0.857	1.28	1.1	1.08	1.14
G fixed	0.926	0.779	0.915	0.979	1.11	1.38	1.24	1.25	1.19	1.04
H fixed	1	1.09	1.02	1.02	1.02	0.958	1.06	1.05	0.968	1.09
I fixed	0.983	0.753	0.89	0.93	0.8	0.896	0.764	0.807	0.882	0.87
K fixed	0.896	1.09	0.896	0.989	1.08	1.04	1.17	1.14	1.06	1.16
L fixed	1.04	0.851	0.841	1.13	0.891	1.04	0.821	0.912	0.894	0.913
M fixed	1.38	0.857	1.05	1.03	0.977	0.926	0.855	0.828	0.881	0.89
N fixed	0.919	0.946	0.973	0.894	0.984	0.947	1.04	0.98	0.89	0.959
P fixed	0.955	0.819	0.941	1.09	1.04	1.07	1.04	1.06	1.11	0.99
Q fixed	0.873	0.929	1.09	0.881	0.991	0.951	0.891	1.07	0.974	0.952
R fixed	1	1.09	1.01	0.97	1.13	1.12	1.29	1.24	1.13	1.16
V fixed	0.918	0.844	0.822	0.828	0.73	0.85	0.803	0.794	0.844	0.802
W fixed	1.49	1.72	1.14	1.11	1.18	1.12	1.07	1.01	1.06	1.1
pThr fixed	0.894	1.05	0.876	1.08	1.01	1.09	0.859	1.08	1.05	1.11
pTyr fixed	0.963	1.06	1.03	1.01	1.09	1.57	1.11	1.82	1.05	1.11

PDGFRA, construct: aa550-end, human (from UniProt P16234)
relative phosphorylation
Conditions	at +1	at +2	at +3	at +4	at +5	at -1	at -2	at -3	at -4	at -5
A fixed	0.719	0.633	0.549	0.784	0.982	0.729	1.02	0.85	1.04	0.882
D fixed	0.273	0.434	0.302	0.674	0.645	1.32	0.947	0.97	0.898	0.812
E fixed	0.492	0.583	0.198	0.613	0.565	0.962	0.814	1.14	0.849	0.737
F fixed	2.05	1.59	1.61	1.05	1.35	1.37	0.853	0.954	1.21	1.11
G fixed	0.34	0.427	0.755	0.98	0.943	0.594	1.09	1.07	1.08	1.03
H fixed	1.43	1.02	0.972	1.34	1.1	1.47	1.01	1.09	0.962	1.15
I fixed	1.66	1.03	2.09	0.922	0.999	1.36	0.94	0.823	0.916	1.1
K fixed	0.699	1.12	1.02	1.05	1.08	0.509	0.835	0.959	1.06	0.995
L fixed	1.31	1.4	1.53	0.808	1.12	1.18	1	0.905	1.06	1.11
M fixed	1.13	1.2	1.13	1.17	1.02	0.892	1	0.967	0.878	1.1
N fixed	0.671	0.856	0.748	0.987	0.967	1.49	1.06	1.13	0.832	1.07
P fixed	0.31	0.863	0.928	1.11	0.943	0.931	1.34	1.08	1.06	0.885
Q fixed	1.25	0.928	0.632	1.01	0.92	1.07	1.13	1.11	1.07	1.04
R fixed	0.768	1.56	1.19	1.49	1.17	0.55	1.03	1.09	1.05	1.19
S fixed	0.655	0.633	0.604	0.91	0.932	0.694	1.03	1.02	0.801	0.817
T fixed	0.848	0.606	0.793	0.97	0.888	0.945	0.917	0.977	0.745	0.856
V fixed	1.92	0.851	1.62	0.839	0.98	1.02	0.954	0.778	0.894	0.86
W fixed	1.46	2.27	1.33	1.31	1.39	0.91	1.03	1.07	1.6	1.26
pThr fixed	0.498	0.395	0.237	0.467	0.482	0.675	0.695	0.693	0.744	0.786
pTyr fixed	1.75	1.49	0.414	0.788	0.626	1.09	0.876	1.12	1.16	1.02

Reference: the supplement of paper PMC11136658
